# Key:
# [1] = biological target: HDAC4-VP16 fusion protein (pACT-HDAC4) (human, UniProt P56524 1-1084); experiment: mammalian two-hybrid (CheckMate), pG5-Luc luciferase in Jurkat cells
# [2] = biological target: T1, HDAC4 (H863L)-VP16 fusion protein (pACT-HDAC4 (H863L)) (human, UniProt P56524 1-1084); experiment: as above
# T1 construct: also called HDAC4 dominant negative variant (H863L)
binder,measurement,setting,value
"GAL4-N-CoR (RD3) fusion protein (pBIND-N-CoR(RD3)) (other, not shown: large carriers, The cloned fragment carried the variation L1014V (numbered on full-length N-CoR); also called pBND-N-CoR (RD3)) EVLQPAPHQVITNLPEGVRLPTTRPTRPPPPLIPSSKTTVASEKPSFIMGGSISQGTPGTYLTSHNQASYTQETPKPSVGSISLGLPRQQESAKSATLPYIKQEEFSPRSQNSQPEGLLVRAQHEGVVRGTAGAIQEGSITRGTPTSKISVESIPSLRGSITQGTPALPQTGIPTEALVKGSISRMPIEDSSPEKGREEAASKGHVIYEGKSGHILSYDNIKNAREGTRSPRTAHEISLKRSYESVEGNIKQGMSMRESPVSAPLEGLICRALPRGSPHSDLKERTVLSGSIMQGTPRATTESFEDGLKYPKQIKRESPPIRAFEGAITKGKPYDGITTIKEMGRSIHEIPRQDILTQESRKTPEVVQSTRPIIEGSISQGTPIKFDNNSGQSAIKHNVKSLITGPSKLSRGMPPLEIVPENIKVVERGKYEDVKAGETVRSRHTSVVSSGPSVLRSTLHEAPKAQLSPGIYDDTSARRTPVSYQN",binding result,[1],binds
same,binding result,[2],no binding
